Experimental findings from the Human Domainome abundance scans (Beltran et al. 2025) are described below.

± gives the uncertainty stated by the source.

B1: Gamma-crystallin C, residues 91 to 170; numbered along this chain, P07315 (parent)
chain: RLYEREDHKGLMMELSEDCPSIQDRFHLSEIRSLHVLEGCWVLYELPNYRGRQYLLRPQEYRRCQDWGAMDAKAGSLRRV

This data set covers variants of B1. Briefly: abundance fitness (aPCA) (normalised: wild type 0, dead -1); higher = more abundant; growth selection in yeast, the domain comes from the species named. As to conditions: Homo sapiens.
For the variant Q23V, the abundance fitness is -0.053 ± 0.045.

As to Q23F, the abundance fitness was -0.093 ± 0.23.

Regarding Q23N, the abundance fitness was -0.016 ± 0.14.

As for Q23E, the abundance fitness stood at 0 ± 0.069.

Turning to Q23S, the abundance fitness was -0.145 ± 0.078.

Regarding Q23Y, the abundance fitness was -0.17 ± 0.14.

As for Q23R, the abundance fitness was -0.128 ± 0.047.

For Q23G, the abundance fitness was -0.124 ± 0.045.

As to Q23W, the abundance fitness was determined as 0.003 ± 0.056.

Regarding Q23M, the abundance fitness was -0.033 ± 0.075.

On to Q23D, for which the abundance fitness was -0.276 ± 0.12.

For Q23I, the abundance fitness was 0.007 ± 0.17.

For Q23P, the abundance fitness is -0.127 ± 0.089.

On to Q23H, for which the abundance fitness was -0.122 ± 0.13.

Turning to Q23K, the abundance fitness was -0.043 ± 0.092.

For the variant Q23L, the abundance fitness is -0.076 ± 0.044.

Q23A: the abundance fitness is -0.044 ± 0.041.

Take Q23C: the abundance fitness is -0.187 ± 0.09.

As for E30R, the abundance fitness is -0.184 ± 0.037.

On to E30D, for which the abundance fitness was -0.424 ± 0.11.

Turning to E30G, the abundance fitness is -0.273 ± 0.048.

For E30C, the abundance fitness was -0.117 ± 0.054.

Take E30H: the abundance fitness is 0.019 ± 0.098.

Turning to E30T, the abundance fitness was -0.186 ± 0.055.

For the variant E30N, the abundance fitness is -0.116 ± 0.13.

As for E30K, the abundance fitness was -0.13 ± 0.065.

E30W: the abundance fitness is -0.455 ± 0.052.

With E30V, the abundance fitness is -0.275 ± 0.037.

On to E30A, for which the abundance fitness was -0.133 ± 0.049.

As for E30Y, the abundance fitness is -0.145 ± 0.1.

On to E30P, for which the abundance fitness was -1.17 ± 0.34.

Regarding E30F, the abundance fitness was -0.234 ± 0.099.

Consider E30S, for which the abundance fitness was -0.222 ± 0.048.

Consider E30I, for which the abundance fitness was -0.458 ± 0.1.

Turning to E30L, the abundance fitness is -0.368 ± 0.043.

As for H27V, the abundance fitness is -0.602 ± 0.093.

As for H27W, the abundance fitness is -0.441 ± 0.068.

For H27R, the abundance fitness is -0.037 ± 0.059.

For the variant H27Q, the abundance fitness was -0.034 ± 0.1.

In the case of H27T, the abundance fitness is -0.345 ± 0.096.

Take H27A: the abundance fitness is -0.069 ± 0.06.

On to H27F, for which the abundance fitness is -0.414 ± 0.14.

Consider H27K, for which the abundance fitness was -0.137 ± 0.13.

As to H27S, the abundance fitness is -0.079 ± 0.053.

In the case of H27G, the abundance fitness was 0.047 ± 0.037.

Consider H27L, for which the abundance fitness is -0.18 ± 0.056.

Take H27M: the abundance fitness is -0.075 ± 0.094.

On to H27E, for which the abundance fitness is -0.119 ± 0.062.

Turning to H27C, the abundance fitness is -0.115 ± 0.26.

As for H27N, the abundance fitness worked out at 0.075 ± 0.1.

As to H27I, the abundance fitness was -0.739 ± 0.4.

For I22V, the abundance fitness is -0.149 ± 0.07.

Turning to I22Y, the abundance fitness was -0.6 ± 0.34.

For I22D, the abundance fitness was -0.89 ± 0.42.

For I22F, the abundance fitness is -0.47 ± 0.31.

With I22W, the abundance fitness was -0.801 ± 0.17.

With I22T, the abundance fitness was -0.649 ± 0.2.

As to I22G, the abundance fitness was -0.921 ± 0.15.

On to I22P, for which the abundance fitness is -0.978 ± 0.41.

As to I22C, the abundance fitness is -0.61 ± 0.27.

I22S: the abundance fitness was -0.975 ± 0.35.

On to I22R, for which the abundance fitness was -0.771 ± 0.17.

With I22L, the abundance fitness is -0.084 ± 0.059.

On to I22A, for which the abundance fitness was -0.784 ± 0.3.

Take I22M: the abundance fitness was -0.562 ± 0.13.

As to E14V, the abundance fitness was -0.227 ± 0.086.

Regarding E14S, the abundance fitness is -0.25 ± 0.06.

On to E14P, for which the abundance fitness was -0.269 ± 0.074.

For the variant E14G, the abundance fitness was -0.524 ± 0.11.

Regarding E14Q, the abundance fitness is -0.227 ± 0.082.

As for E14K, the abundance fitness is -0.095 ± 0.15.

Regarding E14D, the abundance fitness was -0.485 ± 0.097.

With E14T, the abundance fitness is -0.169 ± 0.091.

Take E14C: the abundance fitness was -0.565 ± 0.21.

Turning to E14Y, the abundance fitness is -0.04 ± 0.17.

Regarding E14R, the abundance fitness is -0.397 ± 0.092.

Consider E14A, for which the abundance fitness is -0.15 ± 0.08.

In the case of E14I, the abundance fitness is -0.265 ± 0.17.

With E17P, the abundance fitness is -0.91 ± 0.32.

As to E17A, the abundance fitness is -0.18 ± 0.074.

Consider E17T, for which the abundance fitness was -0.231 ± 0.078.

E17R: the abundance fitness was -0.422 ± 0.062.

With E17V, the abundance fitness was -0.253 ± 0.064.

Regarding E17I, the abundance fitness is -0.533 ± 0.22.

Turning to E17K, the abundance fitness is -0.416 ± 0.1.

In the case of E17W, the abundance fitness is -0.187 ± 0.095.

In the case of E17N, the abundance fitness is -0.477 ± 0.27.

As for E17Y, the abundance fitness is -0.526 ± 0.19.

As for E17S, the abundance fitness is -0.155 ± 0.057.

With E17F, the abundance fitness was -0.516 ± 0.11.

With E17H, the abundance fitness was -0.564 ± 0.17.

Turning to E17G, the abundance fitness was -0.132 ± 0.051.

For E17L, the abundance fitness was -0.544 ± 0.09.

As for E17Q, the abundance fitness is -0.089 ± 0.073.

In the case of E17C, the abundance fitness is -0.168 ± 0.091.

Take E17D: the abundance fitness is -0.035 ± 0.09.

Regarding S21E, the abundance fitness is -0.554 ± 0.12.

As to S21M, the abundance fitness was -0.914 ± 0.29.

On to S21G, for which the abundance fitness was -0.613 ± 0.065.

Regarding S21D, the abundance fitness is -0.07 ± 0.14.

Turning to S21I, the abundance fitness was -0.842 ± 0.14.

S21R: the abundance fitness was -0.454 ± 0.052.

Regarding S21C, the abundance fitness is -0.089 ± 0.086.

With S21Y, the abundance fitness is -0.762 ± 0.18.

Turning to S21A, the abundance fitness was -0.467 ± 0.094.

Regarding S21W, the abundance fitness was -0.904 ± 0.16.

For S21N, the abundance fitness was determined as 0.053 ± 0.2.

For S21P, the abundance fitness was -0.602 ± 0.23.

On to S21V, for which the abundance fitness is -0.56 ± 0.057.

In the case of S21T, the abundance fitness was -0.456 ± 0.11.

Regarding S21L, the abundance fitness was -0.761 ± 0.1.

With S21H, the abundance fitness was -0.184 ± 0.14.

For the variant S21K, the abundance fitness was -0.472 ± 0.19.

On to M12A, for which the abundance fitness was -0.127 ± 0.05.

In the case of M12F, the abundance fitness is -0.342 ± 0.088.

For the variant M12C, the abundance fitness was -0.288 ± 0.11.

Take M12H: the abundance fitness is -0.483 ± 0.12.

Turning to M12Q, the abundance fitness was -0.636 ± 0.37.

With M12P, the abundance fitness was -0.038 ± 0.1.

M12G: the abundance fitness is -0.286 ± 0.059.

For the variant M12I, the abundance fitness is -0.242 ± 0.11.

For the variant M12L, the abundance fitness is -0.238 ± 0.045.

Regarding M12V, the abundance fitness was -0.096 ± 0.052.

Turning to M12N, the abundance fitness is -0.11 ± 0.15.

M12Y: the abundance fitness is -0.063 ± 0.25.

Consider M12R, for which the abundance fitness was -0.32 ± 0.062.

Take M12W: the abundance fitness is -0.17 ± 0.1.

As to M12D, the abundance fitness is -0.863 ± 0.17.

Turning to M12S, the abundance fitness is -0.172 ± 0.068.

M12T: the abundance fitness was -0.464 ± 0.15.

Regarding M12K, the abundance fitness was -0.464 ± 0.18.

On to L11S, for which the abundance fitness was -0.089 ± 0.051.

For L11E, the abundance fitness stood at 0 ± 0.11.

In the case of L11T, the abundance fitness was -0.049 ± 0.082.

For the variant L11C, the abundance fitness is -0.08 ± 0.095.

As for L11Q, the abundance fitness was -0.127 ± 0.1.

Take L11M: the abundance fitness was -0.017 ± 0.089.

As for L11P, the abundance fitness was -0.004 ± 0.089.

With L11D, the abundance fitness was -0.248 ± 0.092.

On to L11R, for which the abundance fitness is -0.031 ± 0.049.

As for L11N, the abundance fitness amounted to 0.018 ± 0.12.

With L11I, the abundance fitness is -0.116 ± 0.1.

Take L11H: the abundance fitness was -0.144 ± 0.1.

L11V: the abundance fitness is -0.059 ± 0.055.

With L11W, the abundance fitness is -0.289 ± 0.067.

Turning to L11G, the abundance fitness was -0.092 ± 0.057.

For the variant L11A, the abundance fitness is -0.13 ± 0.042.

Regarding L11F, the abundance fitness is -0.017 ± 0.091.

Take G10R: the abundance fitness was -0.931 ± 0.14.

G10N: the abundance fitness was -0.655 ± 0.36.

For the variant G10V, the abundance fitness is -0.821 ± 0.11.

On to G10S, for which the abundance fitness was -0.923 ± 0.15.

Take G10T: the abundance fitness is -1.01 ± 0.49.

As for G10Q, the abundance fitness was -0.775 ± 0.21.

As for G10P, the abundance fitness was -0.951 ± 0.35.

As for G10Y, the abundance fitness was -0.623 ± 0.41.

Consider S29P, for which the abundance fitness was -0.199 ± 0.084.

With S29V, the abundance fitness was -0.328 ± 0.094.

In the case of S29R, the abundance fitness was -0.043 ± 0.04.

As for S29I, the abundance fitness was -0.408 ± 0.19.

In the case of S29H, the abundance fitness is -0.064 ± 0.23.

As to S29N, the abundance fitness is -0.003 ± 0.13.

In the case of S29D, the abundance fitness is -0.073 ± 0.15.

S29K: the abundance fitness is -0.013 ± 0.13.

For S29Q, the abundance fitness was -0.086 ± 0.085.

Regarding S29C, the abundance fitness was -0.237 ± 0.082.

As for S29M, the abundance fitness is -0.408 ± 0.16.
